From patent US20140087995A1 (published 2014)
Numbered stars: 1 amine (or outer) side, 2 acyl side, 3 side chain; on linkers, the order of the positions; unused ones are H or OH. Bridge positions count the residues as written; N and C are the ends. Side chains are listed from the residue outwards. Ends that are not written are not given here. * marks the point of attachment. C20 diacid = O=C(O)CCCCCCCCCCCCCCCCCCC(=O)*; γGlu = O=C(O)[C@H](CCC(=O)[*:2])N[*:1]; AEEA = NCCOCCOCC(=O)O

T1: human calcitonin receptor (human, UniProt P30988 25-474)
T1 sequence (looked up): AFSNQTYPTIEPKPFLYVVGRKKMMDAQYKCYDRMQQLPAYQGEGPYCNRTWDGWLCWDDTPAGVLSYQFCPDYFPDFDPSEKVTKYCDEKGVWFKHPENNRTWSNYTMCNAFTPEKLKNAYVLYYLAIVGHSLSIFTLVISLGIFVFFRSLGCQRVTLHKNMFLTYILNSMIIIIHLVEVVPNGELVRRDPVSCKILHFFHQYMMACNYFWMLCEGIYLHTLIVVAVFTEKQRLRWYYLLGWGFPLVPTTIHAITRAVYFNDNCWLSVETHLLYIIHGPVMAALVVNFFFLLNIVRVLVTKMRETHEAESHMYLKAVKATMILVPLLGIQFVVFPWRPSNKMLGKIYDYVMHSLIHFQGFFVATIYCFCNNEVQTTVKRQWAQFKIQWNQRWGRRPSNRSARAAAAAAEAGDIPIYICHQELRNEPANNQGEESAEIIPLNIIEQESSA


molecular target: T1, human calcitonin receptor; experiment: cell-based or functional assay

hCTR funct. EC50 [nM]	Binder
0.92	K([AEEA-C20 diacid])CNTATCATQRLANFLRHSSPNFGAIPSSTNVGSNTY-NH2 (disulfide 2-7; N-terminus assumed; SMILES CC[C@H](C)[C@H](NC(=O)[C@H](C)NC(=O)CNC(=O)[C@H](Cc1ccccc1)NC(=O)[C@H](CC(N)=O)NC(=O)[C@@H]1CCCN1C(=O)[C@H](CO)NC(=O)[C@H](CO)NC(=O)[C@H](Cc1c[nH]cn1)NC(=O)[C@H](CCCNC(=N)N)NC(=O)[C@H](CC(C)C)NC(=O)[C@H](Cc1ccccc1)NC(=O)[C@H](CC(N)=O)NC(=O)[C@H](C)NC(=O)[C@H](CC(C)C)NC(=O)[C@H](CCCNC(=N)N)NC(=O)[C@H](CCC(N)=O)NC(=O)[C@@H](NC(=O)[C@H](C)NC(=O)[C@@H]1CSSC[C@H](NC(=O)[C@@H](N)CCCCNC(=O)COCCOCCNC(=O)CCCCCCCCCCCCCCCCCCC(=O)O)C(=O)N[C@@H](CC(N)=O)C(=O)N[C@@H]([C@@H](C)O)C(=O)N[C@@H](C)C(=O)N[C@@H]([C@@H](C)O)C(=O)N1)[C@@H](C)O)C(=O)N1CCC[C@H]1C(=O)N[C@@H](CO)C(=O)N[C@@H](CO)C(=O)N[C@H](C(=O)N[C@@H](CC(N)=O)C(=O)N[C@H](C(=O)NCC(=O)N[C@@H](CO)C(=O)N[C@@H](CC(N)=O)C(=O)N[C@H](C(=O)N[C@@H](Cc1ccc(O)cc1)C(N)=O)[C@@H](C)O)C(C)C)[C@@H](C)O, h-amylin derivative; disulfide bridge and C-terminal amide as told for human amylin; also called compound 43) [N^ε1-[2-[2-[2-(19-carboxynonadecanoylamino)ethoxy]ethoxy]acetyl]-[Arg17,Pro21,Pro27]-h-amylin]
4.35	K([AEEA-γGlu-C20 diacid])CNTATCATQRLANFLRHSSPNFGAIPSSTNVGSNTY-NH2 (disulfide 2-7; N-terminus assumed; SMILES CC[C@H](C)[C@H](NC(=O)[C@H](C)NC(=O)CNC(=O)[C@H](Cc1ccccc1)NC(=O)[C@H](CC(N)=O)NC(=O)[C@@H]1CCCN1C(=O)[C@H](CO)NC(=O)[C@H](CO)NC(=O)[C@H](Cc1c[nH]cn1)NC(=O)[C@H](CCCNC(=N)N)NC(=O)[C@H](CC(C)C)NC(=O)[C@H](Cc1ccccc1)NC(=O)[C@H](CC(N)=O)NC(=O)[C@H](C)NC(=O)[C@H](CC(C)C)NC(=O)[C@H](CCCNC(=N)N)NC(=O)[C@H](CCC(N)=O)NC(=O)[C@@H](NC(=O)[C@H](C)NC(=O)[C@@H]1CSSC[C@H](NC(=O)[C@@H](N)CCCCNC(=O)COCCOCCNC(=O)CC[C@H](NC(=O)CCCCCCCCCCCCCCCCCCC(=O)O)C(=O)O)C(=O)N[C@@H](CC(N)=O)C(=O)N[C@@H]([C@@H](C)O)C(=O)N[C@@H](C)C(=O)N[C@@H]([C@@H](C)O)C(=O)N1)[C@@H](C)O)C(=O)N1CCC[C@H]1C(=O)N[C@@H](CO)C(=O)N[C@@H](CO)C(=O)N[C@H](C(=O)N[C@@H](CC(N)=O)C(=O)N[C@H](C(=O)NCC(=O)N[C@@H](CO)C(=O)N[C@@H](CC(N)=O)C(=O)N[C@H](C(=O)N[C@@H](Cc1ccc(O)cc1)C(N)=O)[C@@H](C)O)C(C)C)[C@@H](C)O, h-amylin derivative; disulfide bridge and C-terminal amide as told for human amylin; also called compound 41)
5.46	K([γGlu-C20 diacid])CNTATCATQRLANFLRHSSPNFGAIPSSTNVGSKTY-NH2 (disulfide 2-7; N-terminus assumed; SMILES CC[C@H](C)[C@H](NC(=O)[C@H](C)NC(=O)CNC(=O)[C@H](Cc1ccccc1)NC(=O)[C@H](CC(N)=O)NC(=O)[C@@H]1CCCN1C(=O)[C@H](CO)NC(=O)[C@H](CO)NC(=O)[C@H](Cc1c[nH]cn1)NC(=O)[C@H](CCCNC(=N)N)NC(=O)[C@H](CC(C)C)NC(=O)[C@H](Cc1ccccc1)NC(=O)[C@H](CC(N)=O)NC(=O)[C@H](C)NC(=O)[C@H](CC(C)C)NC(=O)[C@H](CCCNC(=N)N)NC(=O)[C@H](CCC(N)=O)NC(=O)[C@@H](NC(=O)[C@H](C)NC(=O)[C@@H]1CSSC[C@H](NC(=O)[C@@H](N)CCCCNC(=O)CC[C@H](NC(=O)CCCCCCCCCCCCCCCCCCC(=O)O)C(=O)O)C(=O)N[C@@H](CC(N)=O)C(=O)N[C@@H]([C@@H](C)O)C(=O)N[C@@H](C)C(=O)N[C@@H]([C@@H](C)O)C(=O)N1)[C@@H](C)O)C(=O)N1CCC[C@H]1C(=O)N[C@@H](CO)C(=O)N[C@@H](CO)C(=O)N[C@H](C(=O)N[C@@H](CC(N)=O)C(=O)N[C@H](C(=O)NCC(=O)N[C@@H](CO)C(=O)N[C@@H](CCCCN)C(=O)N[C@H](C(=O)N[C@@H](Cc1ccc(O)cc1)C(N)=O)[C@@H](C)O)C(C)C)[C@@H](C)O, h-amylin derivative; disulfide bridge and C-terminal amide as told for human amylin; also called compound 35) [N^ε1-[(4S)-4-carboxy-4-(19-carboxynonadecanoylamino)butanoyl]-[Arg17,Pro21,Pro27,Lys35]-h-amylin]
14.1	K([γGlu-γGlu-C20 diacid])CNTATCATQRLADFLRHSSPNFGAIPSSTNVGSRTY-NH2 (disulfide 2-7; N-terminus assumed; SMILES CC[C@H](C)[C@H](NC(=O)[C@H](C)NC(=O)CNC(=O)[C@H](Cc1ccccc1)NC(=O)[C@H](CC(N)=O)NC(=O)[C@@H]1CCCN1C(=O)[C@H](CO)NC(=O)[C@H](CO)NC(=O)[C@H](Cc1c[nH]cn1)NC(=O)[C@H](CCCNC(=N)N)NC(=O)[C@H](CC(C)C)NC(=O)[C@H](Cc1ccccc1)NC(=O)[C@H](CC(=O)O)NC(=O)[C@H](C)NC(=O)[C@H](CC(C)C)NC(=O)[C@H](CCCNC(=N)N)NC(=O)[C@H](CCC(N)=O)NC(=O)[C@@H](NC(=O)[C@H](C)NC(=O)[C@@H]1CSSC[C@H](NC(=O)[C@@H](N)CCCCNC(=O)CC[C@H](NC(=O)CC[C@H](NC(=O)CCCCCCCCCCCCCCCCCCC(=O)O)C(=O)O)C(=O)O)C(=O)N[C@@H](CC(N)=O)C(=O)N[C@@H]([C@@H](C)O)C(=O)N[C@@H](C)C(=O)N[C@@H]([C@@H](C)O)C(=O)N1)[C@@H](C)O)C(=O)N1CCC[C@H]1C(=O)N[C@@H](CO)C(=O)N[C@@H](CO)C(=O)N[C@H](C(=O)N[C@@H](CC(N)=O)C(=O)N[C@H](C(=O)NCC(=O)N[C@@H](CO)C(=O)N[C@@H](CCCNC(=N)N)C(=O)N[C@H](C(=O)N[C@@H](Cc1ccc(O)cc1)C(N)=O)[C@@H](C)O)C(C)C)[C@@H](C)O, h-amylin derivative; disulfide bridge and C-terminal amide as told for human amylin; also called compound 52)
1.28	{C20 diacid-γGlu}-KCNTATCATQRLAEFLRHSSPNFGAIPSSTNVGKNTY-NH2 (disulfide 2-7; SMILES CC[C@H](C)[C@H](NC(=O)[C@H](C)NC(=O)CNC(=O)[C@H](Cc1ccccc1)NC(=O)[C@H](CC(N)=O)NC(=O)[C@@H]1CCCN1C(=O)[C@H](CO)NC(=O)[C@H](CO)NC(=O)[C@H](Cc1c[nH]cn1)NC(=O)[C@H](CCCNC(=N)N)NC(=O)[C@H](CC(C)C)NC(=O)[C@H](Cc1ccccc1)NC(=O)[C@H](CCC(=O)O)NC(=O)[C@H](C)NC(=O)[C@H](CC(C)C)NC(=O)[C@H](CCCNC(=N)N)NC(=O)[C@H](CCC(N)=O)NC(=O)[C@@H](NC(=O)[C@H](C)NC(=O)[C@@H]1CSSC[C@H](NC(=O)[C@H](CCCCN)NC(=O)CC[C@H](NC(=O)CCCCCCCCCCCCCCCCCCC(=O)O)C(=O)O)C(=O)N[C@@H](CC(N)=O)C(=O)N[C@@H]([C@@H](C)O)C(=O)N[C@@H](C)C(=O)N[C@@H]([C@@H](C)O)C(=O)N1)[C@@H](C)O)C(=O)N1CCC[C@H]1C(=O)N[C@@H](CO)C(=O)N[C@@H](CO)C(=O)N[C@H](C(=O)N[C@@H](CC(N)=O)C(=O)N[C@H](C(=O)NCC(=O)N[C@@H](CCCCN)C(=O)N[C@@H](CC(N)=O)C(=O)N[C@H](C(=O)N[C@@H](Cc1ccc(O)cc1)C(N)=O)[C@@H](C)O)C(C)C)[C@@H](C)O, h-amylin derivative; disulfide bridge and C-terminal amide as told for human amylin; also called compound 36)
3	K([γGlu-γGlu-C20 diacid])CNTATCATQRLADFLRHSSPNFGAIPSSTNVGSDTY-NH2 (disulfide 2-7; N-terminus assumed; SMILES CC[C@H](C)[C@H](NC(=O)[C@H](C)NC(=O)CNC(=O)[C@H](Cc1ccccc1)NC(=O)[C@H](CC(N)=O)NC(=O)[C@@H]1CCCN1C(=O)[C@H](CO)NC(=O)[C@H](CO)NC(=O)[C@H](Cc1c[nH]cn1)NC(=O)[C@H](CCCNC(=N)N)NC(=O)[C@H](CC(C)C)NC(=O)[C@H](Cc1ccccc1)NC(=O)[C@H](CC(=O)O)NC(=O)[C@H](C)NC(=O)[C@H](CC(C)C)NC(=O)[C@H](CCCNC(=N)N)NC(=O)[C@H](CCC(N)=O)NC(=O)[C@@H](NC(=O)[C@H](C)NC(=O)[C@@H]1CSSC[C@H](NC(=O)[C@@H](N)CCCCNC(=O)CC[C@H](NC(=O)CC[C@H](NC(=O)CCCCCCCCCCCCCCCCCCC(=O)O)C(=O)O)C(=O)O)C(=O)N[C@@H](CC(N)=O)C(=O)N[C@@H]([C@@H](C)O)C(=O)N[C@@H](C)C(=O)N[C@@H]([C@@H](C)O)C(=O)N1)[C@@H](C)O)C(=O)N1CCC[C@H]1C(=O)N[C@@H](CO)C(=O)N[C@@H](CO)C(=O)N[C@H](C(=O)N[C@@H](CC(N)=O)C(=O)N[C@H](C(=O)NCC(=O)N[C@@H](CO)C(=O)N[C@@H](CC(=O)O)C(=O)N[C@H](C(=O)N[C@@H](Cc1ccc(O)cc1)C(N)=O)[C@@H](C)O)C(C)C)[C@@H](C)O, h-amylin derivative; disulfide bridge and C-terminal amide as told for human amylin; also called compound 2)
